Substitutions are numbered along the chain they refer to.
B1: Met-TNFRI171 (receptor)
chain: MDSVCPQGKYIHPQNNSICCTKCHKGTYLYNDCPGPGQDTDCRECESGSFTASENHLRHCLSCSKCRKEMGQVEISSCTVDRDTVCGCRKNQYRHYWSENLFQCFNCSLCLNGTVHLSCQEKQNTVCTCHAGFFLRENECVSCSNCKKSLECTKLCLPQIENVKGTEDSGTT
notes: also called Wild-type (TNFRI171); wild-type TNFRI
B2: TNFRI171-A30 (receptor)
chain: B1 chain with S53I, E54P, H56F, R58P, H59A
B3: TNFRI171-A9 (receptor)
chain: B1 chain with S53M, H56F, R58P, H59A
B4: TNFRI171-A15 (receptor)
chain: B1 chain with S53Y, H56F, R58P, H59A
B5: TNFRI171-A16 (receptor)
chain: B1 chain with S53K, H56F, R58P, H59A
B6: TNFRI171-A18 (receptor)
chain: B1 chain with S53H, H56F, R58P, H59A
B7: TNFRI171-A10 (receptor)
chain: B1 chain with S53W, H56F, R58P, H59A
B8: TNFRI171-A22 (receptor)
chain: B1 chain with S53M, H56F, R58P, H59G
B9: TNFRI171-A8 (receptor)
chain: B1 chain with S53F, H56F, R58P, H59A
B10: TNFRI171-A26 (receptor)
chain: B1 chain with S53I, E54P, H56F, R58P, H59G
B11: TNFRI171-A21 (receptor)
chain: B1 chain with S53I, H56F, R58P, H59G
B12: TNFRI171-A2 (receptor)
chain: B1 chain with S53I, H56F, R58P, H59A
B13: Met-TNFRI126 (receptor)
chain: MDSVCPQGKYIHPQNNSICCTKCHKGTYLYNDCPGPGQDTDCRECESGSFTASENHLRHCLSCSKCRKEMGQVEISSCTVDRDTVCGCRKNQYRHYWSENLFQCFNCSLCLNGTVHLSCQEKQNTVC
notes: also called Wild-type (TNFRI126); wild-type TNFRI
B14: TNFRI126-A22 (receptor)
chain: B13 chain with S53M, H56F, R58P, H59G
notes: Met-TNFRI126 mutant made in E. coli
B15: TNFRI126-A30 (receptor)
chain: B13 chain with S53I, E54P, H56F, R58P, H59A
notes: as for B14
B16: TNFRI126-A21 (receptor)
chain: B13 chain with S53I, H56F, R58P, H59G
notes: as for B14
B17: TNFRI126-A26 (receptor)
chain: B13 chain with S53I, E54P, H56F, R58P, H59G
notes: as for B14
B18: TNFRI126-A25 (receptor)
chain: B13 chain with S53I, E54P, H56F, R58F, H59A
notes: as for B14
B19: TNFRI126-A27 (receptor)
chain: B13 chain with S53I, E54P, H56F, R58L, H59G
notes: as for B14
B20: TNFRI126-A20 (receptor)
chain: B13 chain with S53E, H56F, R58P, H59A
notes: as for B14
B21: TNFRI126-A23 (receptor)
chain: B13 chain with S53I, E54P, H56F, R58L, H59A
notes: as for B14
B22: TNFRI126-A24 (receptor)
chain: B13 chain with S53I, E54P, H56F, R58I, H59A
notes: as for B14
B23: TNFRI126-A29 (receptor)
chain: B13 chain with S53I, E54P, H56F, R58F, H59G
notes: as for B14
B24: TNFRI126-A19 (receptor)
chain: B13 chain with S53D, H56F, R58P, H59A
notes: as for B14
B25: TNFRI126-S31 (receptor)
chain: B13 chain with L29V, S53I, H56F, R58P, H59A
notes: Met-TNFRI126 superlead mutant made in E. coli
B26: TNFRI126-S36 (receptor)
chain: B13 chain with L29V, S53M, H56F, R58P, H59A
notes: as for B25
B27: TNFRI126-S57 (receptor)
chain: B13 chain with L29V, S53M, H56F, R58P, H59A, K122N
notes: as for B25
B28: TNFRI126-S53 (receptor)
chain: B13 chain with L29V, S53I, H56F, R58P, H59A, K122Q
notes: as for B25
B29: TNFRI126-S56 (receptor)
chain: B13 chain with L29V, S53M, H56F, R58P, H59A, K122Q
notes: as for B25
B30: TNFRI126-S46 (receptor)
chain: B13 chain with L29V, S53I, H56F, R58P, H59G
notes: as for B25
B31: TNFRI126-S41 (receptor)
chain: B13 chain with L29V, S53H, H56F, R58P, H59A
notes: as for B25
B32: TNFRI126-S63 (receptor)
chain: B13 chain with L29V, S53M, H56F, R58P, H59G, K122N
notes: as for B25
B33: TNFRI126-S60 (receptor)
chain: B13 chain with L29V, S53H, H56F, R58P, H59A, K122N
notes: as for B25
B34: TNFRI126-S54 (receptor)
chain: B13 chain with L29V, S53I, H56F, R58P, H59A, K122N
notes: as for B25
B35: TNFRI126-S62 (receptor)
chain: B13 chain with L29V, S53I, H56F, R58P, H59G, K122Q
notes: as for B25
B36: TNFRI126-S47 (receptor)
chain: B13 chain with L29V, S53M, H56F, R58P, H59G
notes: as for B25
B37: TNFRI126-S48 (receptor)
chain: B13 chain with L29V, S53I, E54P, H56F, R58P, H59G
notes: as for B25
B38: TNFRI126-S59 (receptor)
chain: B13 chain with L29V, S53H, H56F, R58P, H59A, K122Q
notes: as for B25
B39: TNFRI105-S31 (receptor)
chain: MDSVCPQGKYIHPQNNSICCTKCHKGTYVYNDCPGPGQDTDCRECESGSFTAIENFLPACLSCSKCRKEMGQVEISSCTVDRDTVCGCRKNQYRHYWSENLFQCFN
notes: Met-TNFRI105 superlead mutant made in E. coli
B40: Met-TNFRI105 (receptor)
chain: B39 chain with V29L, I53S, F56H, P58R, A59H
notes: also called Wild-type (TNFRI105)
B41: TNFRI105-S41 (receptor)
chain: B39 chain with I53H
notes: as for B39
B42: TNFRI105-S36 (receptor)
chain: B39 chain with I53M
notes: as for B39

Molecular target: T1, TNF-α (UniProt P01375 77-233, limits assumed)
Experiment: cell-based or functional assay

| Binder | Relative Activity (Cytotoxicity-neutralizing activity) (fold) |
| --- | --- |
| B1 | 1 |
| B2 | 127 |
| B3 | 158 |
| B4 | 142 |
| B5 | 139 |
| B6 | 126 |
| B7 | 44 |
| B8 | 242 |
| B9 | 120 |
| B10 | 196 |
| B11 | 226 |
| B12 | 207 |

Molecular target: T1, TNF-α
Experiment: competition ELISA: sample vs plate-bound TNFRI190 for TNF-α, from IC50, relative to wild-type TNFRI126
Protocol: (§1) Each well was washed three times with 300 μL of washing buffer (0.05% Tween-20, PBS, pH 7.4) and incubated at room temperature for 2 hours with 300 μL of a blocking buffer (5% skim milk, PBS, pH 7.4). Then, each well was washed as mentioned above. A sample of interest was diluted to concentrations of 500 nM, 125 nM, 31 nM, 7.8 nM, 1.9 nM, 0.48 nM, 0.12 nM, and 0.03 nM in series and loaded in an amount of 100 μL into each well in duplicate. To each well was added 100 μL of 50 ng/ml TNF-α, followed by incubation at room temperature for 2 hours. After the wells were washed with a washing buffer, 100 μg/mL anti-TNF-α antibody solution was diluted 1/1000, added in an amount of 100 μL per each well, and incubated at room temperature for 2 hours. After the plates were washed with a washing buffer, a substrate was added in an amount of 100 μL to each well and reacted at room temperature for 15 min. In each well, 100 μL of the substrate 3,3′,5,5′-tetramethylbenzidine (RnD, Cat. No: DY999) was reacted at room temperature for 15 min, followed by adding 50 μL of 1.0 M sulfuric acid (Samchun Chemical, Cat. No: 52129) to each well to stop the reaction.
Affinity of Met-TNFRI and Met-TNFRI mutants for TNF-α was determined by measuring an absorbance change with concentration and evaluating IC₅₀ value by measuring an absorbance change with concentration.

| Binder | Affinity (%) |
| --- | --- |
| B13 | 100 |
| B14 | 1430 |
| B15 | 952 |
| B16 | 1400 |
| B17 | 1140 |
| B18 | 682 |
| B19 | 894 |
| B20 | 782 |
| B21 | 1100 |
| B22 | 1060 |
| B23 | 435 |
| B24 | 482 |

Molecular target: T1, TNF-α
Experiment: competition ELISA: sample vs plate-bound TNFRI190 for TNF-α, from IC50, relative to wild-type TNFRI171
Protocol: as §1
(§2) The affinity of the Met-TNFRI for TNF-α was assayed using the same procedure as in [Experimental Example 1]

| Binder | Relative Affinity for Ligand (%) |
| --- | --- |
| B1 | 100 |

Molecular target: T1, TNF-α
Experiment: competition ELISA: sample vs plate-bound TNFRI190 for TNF-α, from IC50, relative to wild-type TNFRI126
Remark: another data set of the same source
Protocol: as §1, §2

| Binder | Relative Affinity for Ligand (%) |
| --- | --- |
| B13 | 100 |
| B25 | 457 |
| B26 | 489 |
| B27 | 465 |
| B28 | 522 |
| B29 | 602 |
| B30 | 412 |
| B31 | 432 |
| B32 | 486 |
| B33 | 397 |
| B34 | 448 |
| B35 | 543 |
| B36 | 501 |
| B37 | 477 |
| B38 | 463 |

Molecular target: T1, TNF-α
Experiment: competition ELISA: sample vs plate-bound TNFRI190 for TNF-α, from IC50, relative to wild-type TNFRI105
Protocol: as §1, §2

| Binder | Relative Affinity for Ligand (%) |
| --- | --- |
| B39 | 453 |
| B40 | 100 |
| B41 | 403 |
| B42 | 459 |

— patent US20120277142A1 (HANALL BIOPHARMA, published 2012)
